The target in series [1] is T1, ArdC (Escherichia coli plasmid R388 …, UniProt Q6I6B2 22-318).
T1 sequence: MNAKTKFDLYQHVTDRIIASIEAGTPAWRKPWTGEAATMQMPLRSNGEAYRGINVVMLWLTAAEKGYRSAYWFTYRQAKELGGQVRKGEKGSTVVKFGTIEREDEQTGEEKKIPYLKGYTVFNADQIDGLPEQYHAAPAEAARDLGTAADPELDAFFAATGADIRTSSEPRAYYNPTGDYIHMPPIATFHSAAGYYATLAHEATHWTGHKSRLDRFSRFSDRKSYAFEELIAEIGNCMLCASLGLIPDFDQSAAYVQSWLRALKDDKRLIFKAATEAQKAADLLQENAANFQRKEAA
Kind of series: EMSA; 0-1 uM ArdC, 50 nM DNA; preferred over dsDNA; EMSA: 50 mM NaCl, 25 mM Tris-HCl pH 7.5, 0.5 mM EDTA, room temperature 30 min, 50 nM DNA; 10% native PAGE in cold 1x TBE. The settings on record: protein: recombinant; label: 6FAM (5'); single strand.

Series [2] has as its target T1, ArdC. Put plainly: EMSA; 0-1 uM ArdC, 50 nM DNA; preferred over blunt duplex; EMSA: 50 mM NaCl, 25 mM Tris-HCl pH 7.5, 0.5 mM EDTA, room temperature 30 min, 50 nM DNA; 10% native PAGE in cold 1x TBE. The settings on record: protein: recombinant, label: 6FAM (5' of strand 1). Background: A gel shift assay detects complexes by their altered migration in electrophoresis.

In the case of TACGCTCTTGGGCGCGCTGAATATGAGGTCAAGGCCGATGCGCTC (ssDNA) [Fluor-T87I2 (45 b ssDNA)], in the series with ArdC [1], the binding result is reported as “binds”.

B1: Fluor-T87I2 + Mid2 (partial duplex) (mixed)
DNA 1: TACGCTCTTGGGCGCGCTGAATATGAGGTCAAGGCCGATGCGCTC
DNA 2: CTCATATTCAGCGCGCCCAAGAGCGTA
Turning to B1, in the series with ArdC [2] (27 bp duplex, 3' overhang 18 nt (strand 1)), the binding result is recorded as “binds”.

B2: Fluor-T87I2 + Mid1 (partial duplex) (mixed)
DNA 1: TACGCTCTTGGGCGCGCTGAATATGAGGTCAAGGCCGATGCGCTC
DNA 2: GAGCGCATCGGCCTTGAC
As for B2, in the series with ArdC [2] (18 bp duplex, 5' overhang 27 nt (strand 1)), the binding result is reported as “binds”.

The values above are taken from PMC7213743, “ArdC, a ssDNA-binding protein with a metalloprotease domain, overpasses the recipient hsdRMS restriction system broadening conjugation host range”.
